Measurements reported in patent US11939390B2, “Methods of treating multiple myeloma” (Sanofi-Aventis U.S. LLC, priority 2019, dated 2024).

Key:
[1] = system: anti-isatuximab antibodies; test: Immunogenicity: antidrug antibodies (ADA); design: species or system human; conditions: in vivo
Description: The presence of antidrug antibodies (ADA, i.e., anti-isatuximab antibodies) in patients in the IPd arm were assessed throughout the study.

[2] = Population pharmacokinetics of isatuximab; type: in vivo, human; conditions: patients with renal impairment vs those without
Excerpt: Blood samples were collected from all patients treated with […] to assess the pharmacokinetic profile of isatuximab using population pharmacokinetic approach.

Substance: isatuximab: anti-CD38 antibody, CAS Registry Number 1461640-62-9; heavy chain SEQ ID NO: 10, light chain SEQ ID NO: 11
- anti-drug antibodies (ADA) [1]: No positive ADA
- Pharmacokinetic parameters [2]: comparable between patients with renal impairment and those without
